Laboratory results taken from article PMC7603442, “Tracking a TGF-β activator in vivo: sensitive PET imaging of αvβ8-integrin with the Ga-68-labeled cyclic RGD octapeptide trimer Ga-68-Triveoctin” (EJNMMI Research, 2020).
Where two headings read alike, the source gives them in different places. Starred links: 1 amine or outer side, 2 acyl side, 3 side chain; linkers in the order of their positions; H or OH if unused. Positions of bridges follow the written chain, without caps; N, C: chain ends. Non-standard residues stand in square brackets, D forms with d. Residues, ends and D or L forms follow the SMILES beside them. Chains are numbered I, II in the order given. *: point of attachment. X1 = O=C(CCP(=O)(O)CN1CCN(CP(=O)(O)CCC(=O)NCCCn2cc(CCC(=O)[*:2])nn2)CCN(CP(=O)(O)CCC(=O)NCCCn2cc(CCC(=O)[*:3])nn2)CC1)NCCCn1cc(CCC(=O)[*:1])nn1; X2 = O=C(O)CCP(=O)(O)CN1CCN(CP(=O)(O)CCC(=O)O)CCN(CP(=O)(O)CCC(=O)NCCCn2cc(CCC(=O)*)nn2)CC1; NMeK = CN[C@@H](CCCCN)C(=O)O; Pent4ynoyl = C#CCCC(=O)*

Assays:
αvβ8-integrin = αvβ8-integrin (Homo sapiens, UniProt P06756+P26012); experiment: solid-phase binding assay, αvβ8-integrin affinity
Protocol: (§1) Synthesis and characterization of Triveoctin is described in the Additional file 1. The integrin affinities were determined by a solid-phase binding assay, applying a previously described protocol. β8 immunohistochemistry stainings were done as described. All animal studies have been performed in accordance with general animal welfare regulations in Germany and the institutional guidelines for the care and use of animals. ^68Ga radiolabeling, cultivation of MeWo cells and generation of respective subcutaneous xenografts, determination of n-octanol/phosphate-buffered saline (PBS) distribution coefficients (log D) and ex-vivo biodistribution studies, and µPET imaging were done as described previously in detail (a brief summary is provided in the following).

[1] = tested on: MeWo (human melanoma) xenografted SCID mice; parameters: method as in PMID 23283986; settings: cited from earlier work
clinical = settings: human, in vivo
Protocol: Using a fully automated synthesis module, the eluate of a ^68Ge/^68Ga generator (by Eckert & Ziegler, Berlin, Germany; 0.1 M HCl, approx. 500 MBq ^68Ga) was directly eluted into the reaction vial containing Triveoctin (35 µg) and adjusted to pH 4.5 with sodium acetate. After heating for 4 min at 95 °C, the mixture was passed over a solid-phase extraction cartridge (Waters Sep-Pak®light tC-18), which was purged with water (10 mL). Thereafter, ^68Ga-Triveoctin was eluted with ethanol/water mixture (1:1 by volume, 1 mL), followed by isotonic saline (9 mL). The formulation containing approx. 5% ethanol was passed through a 0.22-µm filter into a sterile injection vial and dispensed for injection. Quality control was done by radio-HPLC using a Shimadzu system equipped with a column Chromolith® Performance RP18e (Phenomenex, Aschaffenburg, Germany), gradient 0–100% acetonitrile in water within 15 min, flow rate 1.4 mL/min, tR = 8.53 min, and met the in-house specifications for ^68Ga-labeled compounds (> 95%).
(§2) Application of ^68Ga-Triveoctin was done according to §13/2b of the German Drug Act (Arzneimittelgesetz). A human subject received a single intravenous injection of ^68Ga-Triveoctin (173 MBq, approx. 25 µg; for radiolabeling and QC, see Additional file 1). […] 25 min p.i., the patient underwent a list-mode PET/CT imaging protocol on a Biograph Vision 600 (Siemens Healthineers, Knoxville, USA). A standard low-dose CT was acquired from the whole body (X-ray tube current 10 mA, tube voltage 100 kV, spiral pitch factor 1.5, 3.0 mm slice thickness) and used for absolute scatter correction of the subsequent PET scan. The emission PET scan was acquired over 19 min using continuous bed motion with a speed of 2.2 mm s^–1 for the legs and 1.4 mm s^–1 for the remaining body. The PET scan was repeated 45 min p.i. without another CT scan. Another PET/CT imaging sequence was acquired 90 min p.i. as the subject had to leave the scanner for voiding. All scans were obtained during normal breathing. PET images were reconstructed using the TRueX algorithm with 4 iterations, 5 subsets, time-of-flight (TOF) application and without filtering. […] The dosimetry values were calculated using OLINDA V1.1 [24] on the basis of the human PET data.

[2] = parameters: species or system human; settings: in vivo
Protocol: as §2
Assuming that an activity of 100 MBq ^68Ga-Triveoctin is sufficient for a PET scan at 30–60 min p.i., up to 6 investigations could be performed without exceeding the 20 mSv limit.

in vivo = experiment: in vivo; parameters: species or system mice; settings: female, CB17 SCID, mouse; for tissue uptake at 1 h: 43 pmol
Protocol: as §1
(§3) MeWo cells (ATCC®, HTB-65™) were grown at 37 °C under 5% CO2 atmosphere in DMEM/HAM (Biochrom, Berlin, Germany) with 10% fetal calf serum (Thermo Fisher). Approx. 10^7 cells were subcutaneously injected with Matrigel® (Corning, #354262) into the right shoulder of 6–8-week-old female CB17 severe combined immunodeficiency (SCID) mice, which were used about 2–3 weeks later for PET and biodistribution.
(§4) Fig. 3 Biodistribution of ^68Ga-Triveoctin, 60 min p.i. (43 ± 13 pmol, n = 6; blockade with 60 nmol Triveoctin injected 5 min prior to the radiopharmaceutical, n = 4) in MeWo-xenografted SCID mice, uptakes expressed as % injected dose per gram tissue; mean ± SD. Data for ^68Ga-TRAP-AvB8 (control: 77 ± 24 pmol, n = 11; blockade: n = 3) were taken from the literature and are shown for comparison. Data in numerical form are given in the Additional file 1: Table S1

[3] = tested on: MeWo (human melanoma) xenografted SCID mice; experiment: in vivo; settings: mouse
Protocol: as §1, §3, §4

[4] = non-radioactive 69/71Ga(III) complexes where applicable, read-out: αvβ8-Integrin affinity IC50 (95% confidence interval)
[5] = female, CB17 SCID, 43 pmol, 1 h

Sequence of αvβ8-integrin (P06756 31-992 limits assumed): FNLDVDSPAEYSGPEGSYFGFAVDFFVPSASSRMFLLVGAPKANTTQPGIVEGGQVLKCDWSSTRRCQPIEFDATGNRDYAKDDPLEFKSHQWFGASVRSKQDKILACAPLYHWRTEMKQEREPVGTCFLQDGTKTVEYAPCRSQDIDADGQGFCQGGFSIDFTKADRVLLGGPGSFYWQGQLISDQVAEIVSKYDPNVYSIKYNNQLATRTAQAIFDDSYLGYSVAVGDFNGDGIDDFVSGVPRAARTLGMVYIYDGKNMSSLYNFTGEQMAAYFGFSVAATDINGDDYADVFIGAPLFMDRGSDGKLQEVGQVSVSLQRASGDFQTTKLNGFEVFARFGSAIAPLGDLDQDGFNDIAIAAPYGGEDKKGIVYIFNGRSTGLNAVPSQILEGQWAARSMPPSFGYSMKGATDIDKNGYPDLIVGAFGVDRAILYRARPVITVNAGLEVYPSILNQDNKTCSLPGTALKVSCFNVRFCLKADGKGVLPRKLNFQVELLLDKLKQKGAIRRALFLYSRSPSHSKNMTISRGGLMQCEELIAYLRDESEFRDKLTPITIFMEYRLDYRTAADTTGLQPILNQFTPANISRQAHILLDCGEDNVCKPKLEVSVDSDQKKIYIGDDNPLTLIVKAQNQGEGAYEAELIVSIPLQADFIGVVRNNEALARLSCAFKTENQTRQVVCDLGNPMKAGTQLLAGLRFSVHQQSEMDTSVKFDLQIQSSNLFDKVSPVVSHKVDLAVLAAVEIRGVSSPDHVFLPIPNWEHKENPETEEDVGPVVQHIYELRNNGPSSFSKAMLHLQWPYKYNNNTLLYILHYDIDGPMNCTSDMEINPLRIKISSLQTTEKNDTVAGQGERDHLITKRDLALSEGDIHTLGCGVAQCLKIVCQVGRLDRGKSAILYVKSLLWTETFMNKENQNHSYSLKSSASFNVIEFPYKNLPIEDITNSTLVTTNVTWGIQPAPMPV
Sequence of αvβ8-integrin (P26012 43-684 limits assumed): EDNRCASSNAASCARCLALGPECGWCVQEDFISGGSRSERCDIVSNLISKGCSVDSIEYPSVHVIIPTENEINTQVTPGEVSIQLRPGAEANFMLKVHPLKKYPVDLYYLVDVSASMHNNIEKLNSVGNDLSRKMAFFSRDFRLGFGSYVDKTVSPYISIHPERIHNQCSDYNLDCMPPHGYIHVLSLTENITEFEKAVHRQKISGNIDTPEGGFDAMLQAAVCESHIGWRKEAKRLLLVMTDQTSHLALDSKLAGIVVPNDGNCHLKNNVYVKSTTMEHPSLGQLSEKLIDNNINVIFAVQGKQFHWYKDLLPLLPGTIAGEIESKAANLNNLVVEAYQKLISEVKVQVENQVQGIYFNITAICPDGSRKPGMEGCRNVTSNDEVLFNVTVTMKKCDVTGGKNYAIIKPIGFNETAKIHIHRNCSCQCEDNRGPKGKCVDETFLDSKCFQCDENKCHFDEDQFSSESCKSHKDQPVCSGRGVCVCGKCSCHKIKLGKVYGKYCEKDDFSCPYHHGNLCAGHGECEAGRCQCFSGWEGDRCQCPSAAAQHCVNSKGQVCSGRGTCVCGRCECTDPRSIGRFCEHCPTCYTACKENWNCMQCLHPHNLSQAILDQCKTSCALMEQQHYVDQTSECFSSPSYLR

`C#CCCC(=O)NCCCC[C@H]1C(=O)NCC(=O)N[C@@H](CC(C)C)C(=O)N[C@@H](CCCNC(=N)N)C(=O)NCC(=O)N[C@@H](CC(=O)O)C(=O)N[C@@H](CC(C)C)C(=O)N2CCC[C@@H]2C(=O)N1C` [AvB8-pentynoic amide, cyclo(GLRGDLp(NMe)K(pent-4-ynoic amide))] (cyclo(GLRGDL[dP][NMeK](Pent4ynoyl))) showed an IC50 (αvβ8-integrin; [4]) of 0.017 µM.

For `CC(C)C[C@@H]1NC(=O)CNC(=O)[C@H](CCCCNC(=O)CCc2cn(CCCNC(=O)CCP(=O)(O)CN3CCN(CP(=O)(O)CCC(=O)O)CCN(CP(=O)(O)CCC(=O)O)CC3)nn2)N(C)C(=O)[C@H]2CCCN2C(=O)[C@H](CC(C)C)NC(=O)[C@H](CC(=O)O)NC(=O)CNC(=O)[C@H](CCCNC(=N)N)NC1=O` [^68Ga-TRAP-AvB8, metal not drawn] (cyclo(GLRGDL[dP][NMeK](X2))), the IC50 (αvβ8-integrin) is listed as 0.038 µM, the kidney uptake ([1]; 60 min p.i., average) is listed as 3.6 %IA/g and the “tumor uptake upon blockade” value ([1]; blockade n = 3) is listed as 0.25 %IA/g. The tumor uptake ([1]; control n = 11) was 1.0 %IA/g.

For `CC(C)C[C@@H]1NC(=O)CNC(=O)[C@H](CCCCNC(=O)CCc2cn(CCCNC(=O)CCP(=O)(O)CN3CCN(CP(=O)(O)CCC(=O)NCCCn4cc(CCC(=O)NCCCC[C@H]5C(=O)NCC(=O)N[C@@H](CC(C)C)C(=O)N[C@@H](CCCNC(=N)N)C(=O)NCC(=O)N[C@@H](CC(=O)O)C(=O)N[C@@H](CC(C)C)C(=O)N6CCC[C@@H]6C(=O)N5C)nn4)CCN(CP(=O)(O)CCC(=O)NCCCn4cc(CCC(=O)NCCCC[C@H]5C(=O)NCC(=O)N[C@@H](CC(C)C)C(=O)N[C@@H](CCCNC(=N)N)C(=O)NCC(=O)N[C@@H](CC(=O)O)C(=O)N[C@@H](CC(C)C)C(=O)N6CCC[C@@H]6C(=O)N5C)nn4)CC3)nn2)N(C)C(=O)[C@H]2CCCN2C(=O)[C@H](CC(C)C)NC(=O)[C@H](CC(=O)O)NC(=O)CNC(=O)[C@H](CCCNC(=N)N)NC1=O` [^68Ga-Triveoctin, metal not drawn] (I: cyclo(RGDL[dP][NMeK]GL) / II: cyclo(RGDL[dP][NMeK]GL) / III: cyclo(RGDL[dP][NMeK]GL); linker I:6-II:6-III:6 via X1), the IC50 (αvβ8-integrin; [4]) was 0.0057 µM, the half-life (clinical) was 1.8 h and the kidney-to-blood ratio (clinical) was “approx. 15”. For the same compound, the kidney-to-muscle ratio (clinical) was about 30, the SUV at 1.5 h (clinical; iv, 173 MBq, total radioactivity) was 6.1 SUV and the tissue to tissue ratio at 1.5 h (clinical; iv, 173 MBq, total radioactivity, kidney-to-blood ratio) was 15. For the same compound, the tissue to tissue ratio at 1.5 h (clinical; iv, 173 MBq, total radioactivity, kidney-to-blood ratio, times lower in human than in mice) was 8, the tissue to tissue ratio at 1.5 h (clinical; iv, 173 MBq, total radioactivity, kidney-to-muscle ratio) was 30 and the tissue to tissue ratio at 1.5 h (clinical; iv, 173 MBq, total radioactivity, kidney-to-muscle ratio, times lower in human than in mice) was 16. For the same compound, the “Dose estimate, Adrenals” value [2] was 2.69E−02 mGy/MBq, the “Dose estimate, Brain” value [2] was 5.23E−03 mGy/MBq and the “Dose estimate, Breasts” value [2] was 5.46E−03 mGy/MBq. The “Dose estimate, Gallbladder wall” value [2] was 1.00E−02 mGy/MBq, the “Dose estimate, Heart wall” value [2] was 1.52E−02 mGy/MBq and the “Dose estimate, Kidneys” value [2] was 2.60E−01 mGy/MBq. For the same compound, the “Dose estimate, LLI wall” value [2] was 2.08E−02 mGy/MBq, the “Dose estimate, Liver” value [2] was 2.43E−02 mGy/MBq and the “Dose estimate, Lungs” value [2] was 7.83E−03 mGy/MBq. For the same compound, the “Dose estimate, Muscle” value [2] was 7.23E−03 mGy/MBq, the “Dose estimate, Osteogenic cells” value [2] was 8.89E−03 mGy/MBq and the “Dose estimate, Ovaries” value [2] was 1.13E−02 mGy/MBq. For the same compound, the “Dose estimate, Pancreas” value [2] was 2.01E−02 mGy/MBq, the “Dose estimate, Red marrow” value [2] was 6.48E−03 mGy/MBq and the “Dose estimate, Skin” value [2] was 5.60E−03 mGy/MBq. For the same compound, the “Dose estimate, Small intestine” value [2] was 3.52E−02 mGy/MBq, the “Dose estimate, Spleen” value [2] was 4.42E−02 mGy/MBq and the “Dose estimate, Stomach wall” value [2] was 1.95E−02 mGy/MBq. The “Dose estimate, Testes” value [2] was 8.14E−03 mGy/MBq, the “Dose estimate, Thymus” value [2] was 6.17E−03 mGy/MBq and the “Dose estimate, Thyroid” value [2] was 5.72E−03 mGy/MBq. The “Dose estimate, Total body” value [2] was 9.41E−03 mGy/MBq, the “Dose estimate, ULI wall” value [2] was 1.57E−02 mGy/MBq and the “Dose estimate, Urinary bladder wall” value [2] was 3.42E−01 mGy/MBq. The “Dose estimate, Uterus” value [2] was 1.57E−02 mGy/MBq, the “effective dose (ICRP 60)” value [2] was 3.00E−02 mSv/MBq and the tissue uptake at 1 h (in vivo; Adrenals uptake) was 0.39 ± 0.23 %ID/g. It also gave a tissue uptake at 1 h (in vivo; Blood uptake) of 0.28 ± 0.06 %ID/g, a tissue uptake at 1 h (in vivo; Eye uptake) of 1.95 ± 0.44 %ID/g and a tissue uptake at 1 h (in vivo; Heart (myocard) uptake) of 0.16 ± 0.04 %ID/g. It also gave a tissue uptake at 1 h (in vivo; Kidneys uptake) of 35.3 ± 6.3 %ID/g, a tissue uptake at 1 h (in vivo; Large intestine (empty) uptake) of 0.17 ± 0.03 %ID/g and a tissue uptake at 1 h (in vivo; Liver uptake) of 0.28 ± 0.06 %ID/g. The tissue uptake at 1 h (in vivo; Lung uptake) was 0.68 ± 0.19 %ID/g, the tissue uptake at 1 h (in vivo; Muscle uptake) was 0.07 ± 0.01 %ID/g and the tissue uptake at 1 h (in vivo; Pancreas uptake) was 0.12 ± 0.02 %ID/g. It also gave a tissue uptake at 1 h (in vivo; Small intestine (empty) uptake) of 0.18 ± 0.09 %ID/g, a tissue uptake at 1 h (in vivo; Spleen uptake) of 0.23 ± 0.03 %ID/g and a tissue uptake at 1 h (in vivo; Stomach (empty) uptake) of 0.22 ± 0.07 %ID/g. For the same compound, the tissue uptake at 1 h (in vivo; Tumor MeWo uptake) was 1.86 ± 0.31 %ID/g, the tissue to tissue ratio at 1 h (in vivo; total radioactivity, kidney-to-blood ratio) was 126 and the tissue to tissue ratio at 1 h (in vivo; total radioactivity, kidney-to-muscle ratio) was 505. For the same compound, the tissue to tissue ratio at 1 h (in vivo; tumor/blood ratio) was 6.7 ± 0.7, the tissue to tissue ratio at 1 h (in vivo; tumor/heart (myocard) ratio) was 11.7 ± 1.7 and the tissue to tissue ratio at 1 h (in vivo; tumor/kidneys ratio) was 0.1. It also gave a tissue to tissue ratio at 1 h (in vivo; tumor/liver ratio) of 6.8 ± 1.4, a tissue to tissue ratio at 1 h (in vivo; tumor/lung ratio) of 2.8 ± 0.7 and a tissue to tissue ratio at 1 h (in vivo; tumor/muscle ratio) of 29 ± 6. It also gave a tissue to tissue ratio at 1 h (in vivo; tumor/pancreas ratio) of 15.7 ± 3.5, a tissue to tissue ratio at 1 h (in vivo; tumor/spleen ratio) of 7.9 ± 1.5 and a tissue to tissue ratio at 1 h (in vivo; tumor/stomach (empty) ratio) of 8.8 ± 2.2. For the same compound, the Kidneys uptake [3, 5] was 35 %IA/g, the “Tumor MeWo uptake” value [3, 5] was 1.9 %IA/g and the tumor/adrenals ratio [3] was 5.7 ± 2.3. For the same compound, the tumor/blood ratio [3] was 6.7, the tumor/eye ratio [3] was 1.0 ± 0.2 and the “tumor/large intestine (empty) ratio” value [3] was 11.0 ± 1.6. The tumor/liver ratio [3] was 6.8, the tumor/muscle ratio [3] was 29 and the “tumor/small intestine (empty) ratio” value [3] was 11.6 ± 3.9.
